Experimental data: article PMC8825798 (Communications Biology, 2022)
Where “and” joins values, the source holds several entries; their conditions need not be identical. Equal entries are not always repeated.

How the values were obtained:
Test in all cases: BLI
Details in all cases: both partners purified
[1] = biological target: T1, spike hepta-peptide Thr1273 → Val (SARS-CoV-2, Thr^1273 → Val (stands in the printed letters))
T1 peptide: GVKLHYV

[2] = biological target: T2, spike hepta-peptide Thr1273 → Gln (SARS-CoV-2, Gln^1273 (stands in the printed letters))
T2 peptide: GVKLHYQ

[3] = biological target: T3, spike hepta-peptide Thr1273 → Ala (1267Gly-Val-Lys-Leu-His-Tyr-Ala1273) (SARS-CoV-2, Thr^1273 → Ala (stands in the printed letters))
T3 peptide: GVKLHYA

[4] = biological target: T4, spike hepta-peptide Tyr1272 → Ala (1267Gly-Val-Lys-Leu-His-Ala-Thr1273) (SARS-CoV-2, Tyr^1272 → Ala (stands in the printed letters))
T4 peptide: GVKLHAT

[5] = biological target: T5, spike hepta-peptide Thr1273 → Arg (SARS-CoV-2, Arg^1273 (stands in the printed letters))
T5 peptide: GVKLHYR

[6] = biological target: T6, spike hepta-peptide Thr1273 → Glu (SARS-CoV-2, Thr^1273 → Glu (stands in the printed letters))
T6 peptide: GVKLHYE

B1: αCOPI-WD40 domain (residues 1-327) from Schizosaccharomyces pombe (domain or fragment)
chain: MEMLTKFESRSSRAKGVAFHPTQPWILTSLHNGRIQLWDYRMGTLLDRFDGHDGPVRGIAFHPTQPLFVSGGDDYKVNVWNYKSRKLLFSLCGHMDYVRVCTFHHEYPWILSCSDDQTIRIWNWQSRNCIAILTGHSHYVMCAAFHPSEDLIVSASLDQTVRVWDISGLRMKNAAPVSMSKEDQKAQAHNSKSNDKKGSTDAIVKFVLEGHDRGVNWCAFHPTLPLILSAGDDRLVKLWRMTASKAWEVDTCRGHFNNVSCCLFHPHQELILSASEDKTIRVWDLNRRTAVQTFRRDNDRFWFITVHPKLNLFAAAHDSGVMVFKLE
Question: Which Kd [1] does the source give for B1 here?
Answer: The Kd was 3.2 µM and 2.06 µM.

Question: And the koff [1]?
Answer: The koff was 0.212 s⁻¹.

Question: And the kon [1]?
Answer: The kon was 103000 M⁻¹ s⁻¹.

Question: What about the Kd [2] of the same binder?
Answer: Its Kd is 0.78 µM and 1.15 µM.

Question: What about the koff [2] of the same binder?
Answer: Its koff is 0.066 s⁻¹.

Question: And the kon [2]?
Answer: The kon was 60000 M⁻¹ s⁻¹.

Question: And the Kd [3]?
Answer: Its Kd is 1.13 µM and 1.14 µM.

Question: What about the koff [3] of the same binder?
Answer: The koff was 0.076 s⁻¹.

Question: And the kon [3]?
Answer: The kon was 66700 M⁻¹ s⁻¹.

Question: What about the Kd [4] of the same binder?
Answer: Its Kd is 3.77 µM and 2.32 µM.

Question: And the koff [4]?
Answer: Its koff is 0.28 s⁻¹.

Question: What about the kon [4] of the same binder?
Answer: Its kon is 121000 M⁻¹ s⁻¹.

Question: What about the Kd [5] of the same binder?
Answer: The Kd was 1.73 µM and 1.29 µM.

Question: And the koff [5]?
Answer: The koff was 0.177 s⁻¹.

Question: And the kon [5]?
Answer: The kon was 57600 M⁻¹ s⁻¹.

Question: What about the Kd [6] of the same binder?
Answer: Its Kd is 0.31 µM and 0.38 µM.

Question: And the koff [6]?
Answer: Its koff is 0.024 s⁻¹.

Question: And the kon [6]?
Answer: The kon was 59000 M⁻¹ s⁻¹.
